# Source: the domain aggregation screens of Martell et al. (2025)
# Assay: soluble fraction after stress (log2 fold change); higher = more stays soluble; pooled small domains, quantitative proteomics
# Settings: stress: 75 degC
# 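Also: 20 min heating vs room temperature control held 20 min.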
row,Sequence,soluble fraction (log2)
1,HMGYDDVIVINGKNETYGFPTKVEDDPVLSLVIKGDRSIDYAEERRLFYVAMTRTKNRVFFVAP,0.0548
2,HMGYGEQEAEATKYMSLHAIMSADETLSKMYTPENQHKLMTHVMEQNGIKNVKDYLTPPSELP,0.016
3,HMGYPYDTVTTAKVNLRAKRSTSSDILKKIPEGATVTVKGVTGTFASVDYNGTSGYVKVDYLV,-0.46
4,HMGYSSKISELLTKYNMNASELAQKVGVPPTTIYSIIKRDSKKADIEVLIKIAKLFNVPVEYF,-2.38
5,HMGYTPGVVIQKSAILEEINQPDLALGMMLEAVKKDSQNLDILNRLVTLLIDQKKNEDAEIYNKKIIT,0.234
6,HMHAGMKSWTIQYEKSPIYGSFLMYKDGNIYIQKEDNVVVHFPLDRFSQNDQAILKSRIEKIDQINKSS,-0.761
7,HMHAPKIIVLTINPDKIRDVIGPGGKMIKSIVAATGVKMDVEDDGKIHISSSDQKAADEAIRMINEITAEA,0.146
8,HMHAPLEVGSVVRIEGQKALGTILSISDREAIVALGALKTTIPLKRLHGVSPAEAQRHLRKTTPAQAVR,-0.665
9,HMHAQDTLMTRAGETRTVKILEIGLEEIKYRIWGLDDSPVIVIDKIDVKQIVFSNGEKMTIVQ,-1.47
10,HMHDLTERQREILQTLASGKMALREILSILSQPPSLRTLRDELYHLKRIGLVDTMGYGRGATWFLTQ,-0.223
11,HMHDNPLSAQEQRVLDLIAAGKTSKEIASQLFLSDGTVRNYTTSIFNKLNANNRVEAINIAQENGW,0.866
12,HMHDPRLPLPGTLLAREFQGRDIVVKVLDNGFEFDGRRYKSLSAIAQEVTGSKWNGFLFFGI,-1.33
13,HMHDWDITTAAKPEKIFELFSDIPVLETGLKHGTVTLLIDHEPYEVTTFRVDGNYTDGRHPDSVAFT,0.189
14,HMHGESIPIPNILHKRYADAEQIVNNLRLEIEVTDTGYVRSLPPGAILEQTPGPGERVKSGHIIYVTINAA,-1.42
15,HMHGETLAAKRREEIKVRIQNIYDQSEQIFGYRKITATLRSQGVVVSEKLVSQLMRELEISSVS,-3.92
16,HMHGSSVEIPNIYGLPASEAVQLLDKADLRYEVIDSVYTTEVPKGAVYDLSPKAGSRVKAGRIIFLTLNA,-0.942
17,HMHGSTAVVPQIKNMPYSEASVRLGANGLAIEINDSVYDRDMPPGTVIESWPKAGAVVKQGRQVYVTVTA,-0.425
18,HMHHGALKQALLDETARILAEEGESALSLRRLASNLGVSRTAPYNHFDNKDALLSAVAEEGFRR,-0.0868
19,HMHIELNDTQKRILNFLSDDPNLSAVRLAEQLGISSRNVEKNIKKLKEYGILIRHGSPKNGYWEIVV,0.0385
20,HMHITSFTIKQADQIVGTTPVREQAVGAAKARAQQTGTPVSVIAYLDTGEEREVIIHPDGTN,0.479
21,HMHKLTSRQEEILQFIKDYLSEIGYPPTRSEIAQKMGFRSTNAAEEHLRALARKGAIEILPGPSRGLRLP,-1.13
22,HMHKTEIKIPSREDILAVLRQAQAPLTREQVFEHLKLTEDQIPIIEKRLNAMERDGQLMPNRKGMLLLSTK,-0.0438
23,HMHKYEYESLNHVNVGSNLKYISTHFGQPKLIKKSKYHENLNFAYYLEKKFILTLILEGDRVNAYTITG,-0.732
24,HMHLEKGEVVVPDLKGLTMRQVGELLGKLNLRYSFSGTGLAVKQFPESGQIVNQGDIIEVIF,-0.56
25,HMHLLPAREQVAAYLRKAILRQEIREGTILNLADTARQMGVSVTPVREALQLLAAQGLVRLRPNKGAVVMG,-1.68
26,HMHLNVYRDEDEAMLAFKDHLIGTHQPIRVRVEKALPDGTMGHKIVDTTIGRIVFNHNIPQD,-0.185

row,Sequence,soluble fraction (log2)
1,HMHLTEAPLIKITYFEADQKKSGGQYITIINHLKKINEYENLLVLENGVKINIDDIYELESV,-0.191
2,HMHMNFGEILQTKRKEKGFTQEELAHQLLVSSKTISNWETNKTTPDIDNVIRISQLFDISLNQLLLE,-1.03
3,HMHMSKKLADSIISLRRKHGFSQEQLAEKIGVTRQAISNWERGTATPDVETLNLIAKLFDMDLLAIINGE,0.0813
4,HMHNLYAPTQKEVDHARRVVEAAEAAAREGLGVVSLNGKMVDGPVIDRARLVLSRAELSGIRE,-0.157
5,HMHNNTITLNKKTYVYTASGKKMSKYLGYTYINKGTTLNYYGTKNIKGKTFYYIGDHAYVNAANVGKVTN,-2.07
6,HMHNQIGDKIRELRTRSNLTQADLGKLVGVSMQAVSKWERGGTPDIDVLLSVAKYFNISLDEMVGRT,-1.51
7,HMHPEITLHPVRANIYSISVKNATSMEIYSVSGQLVGIRELKEGTNTLDLTGYINGVYIVNLQNKAFKLVK,-2.38
8,HMHPELSDSQRTLIALMASGLKDEAIAVEMGVGARTVRRKVQELYELLGVRTRFQAGVAANQRGW,-2.34
9,HMHPKDVPTRRELEVLQAVSEGLSTAEIGLRLDITENTVETFRRRLIQKFDAKNAIDLVVKAMAQGWIKV,-2.23
10,HMHQGTIEVGSIVHIEGQKALGTILSLTQREAIVGLGALKTTIPLKRLHLATEAEARRHKKSVTPQEAV,-0.66
11,HMHQIFAETVFEDIAFGPRNKGFNEEEVAKQVREAMAFVGLDYDTYAQRSPFQLSGGQMRRVAIAGVVA,0.0104
12,HMHQKYIITGTRDTYVVSQGETLRTIAEHVYGSRGYARYIIEHNHITHPDDIPVGLTIRLPELELNPDYR,-1.9
13,HMHRAKRTKAQTQSSLESIEGIGPKTRKQLLVHFGGLAEVKAASVSELQKVKGISLDKAQKIYDFFHGS,-0.617
14,HMHRNLSFEEEKEFLSAYTKQAEAGQIVDLNEMKAAYIEKVGHSIGGSQIYRMLERHGWRKVM,-0.446
15,HMHSDSEIEKGYTDDGQKLSNVNGVYMTKSEMYNKGIVEKDPNTGEEVMGRNRVNPVTGELE,0.442
16,HMHSDWITWWYLKDKRFDDDYSLWDRQPVHPEYFEVVKEFKAPPESNPGGLDEVKRILRTYIPDAFAP,-1.11
17,HMHSESAAHQRTSVELFARIPETGNLQSAQRHFDVINQFGRFPHRNKILQRPSSEQEEAFLRQPGSG,0.265
18,HMHSILDDIPTVGPARRKALMRRYESLEAIRQATVDELKELPEINEASAEAIVSFFAGQAKEG,-0.306
19,HMHSRTWTSADGVKTFEGELQSYDAASGKVSVILPNHKRITFKQEKLSADDIAWLEKNGNRP,-0.033
20,HMHTGLTNYEYKQIKSSLLKILTQSESMRLGELVDKVDQFESEKVTTVIRFLVGNEELMLFDDTLTLKKQL,-0.202
21,HMHTTIIVASRDIAAGSVLTSHDLSSVAWVGGAVPKGSYTAADLAVGKTAFTAFQQGEPILESRLAS,-0.35
22,HMHVVVIDKQGALSYQGKAITLLDLKNIVIDVPKETPFLIKADKDIHLQSFVEVLDLIKTAGFKKVSLQ,-2.86
23,HMIAANMTISQRIAAALAEYGVMSVKDIAQEVLGATDKKDTEKIRVTLTRDHGKRFRTYSDGTWSLKDWRP,-2.19
24,HMIAAVIAQVANTNERIILEKRYLSFKSWDEIAVEMRISPRWAYTLHERALKAVDQVLSKQNNE,-4.19
25,HMIADDLKSLEGVDQDMLRDLAEAGINTRDDLAELAIDELIEITGVSTEEAEKVIMAARAHWFEEES,0.318
26,HMIAKEDDGTAFLIDGKISSEEEFKTISKDDILEVFVYKETEIAQKKLDSINSINNTYYTSLIEILLKE,≥ 1.04

row,Sequence,soluble fraction (log2)
1,HMIAKIEGQISYVGNRFLIVDVSGVGYKLFVTNEAISLSKVEESIKLWVHTAVRENSIDLYG,-1.7
2,HMIANDDEIRKVVLEVIEEQPKAVEDVKNGRDRILDFLVGQVMKKTRGKANPSLASNLMKEEIEK,0.453
3,HMIANNFDEFVEKVSEAERKALNMPAGQEMTQKLLEMKLAANPNLTPEEWQRTKSEFMTFLFAVFVRE,-0.939
4,HMIAVLEEGSHFRAVNDVTGKPFGPEMVIKNGQVTAVGKTISTKPKNLLGKKEGTKFVISGKQYVIKDI,-0.0244
5,HMIDAHTALLAKRLEAKGMLPLTDKSSAEEIYAEFGISKKAFKKALGALYKERLVRIGEDGVVWI,-1.8
6,HMIDFIGLEAKLLSTISGEKMGNAEVIVDGNVMNIYVKSLDTSEIKFRENVLIIKQSDDKNYYLVAKP,-3.26
7,HMIDIDTILKKYKPGRRDELIPLMQEIQEVYGHLSEEAVVKIGTYVGLSTTKIYGLATFYDQFRF,-1.76
8,HMIDLGKSRTWHSENGRAIEARVINISEEQQTVEMQRVDGLKFELSWNQLSKADQTLLAEAAKKTALVA,-0.0567
9,HMIDLPDIDIDFAKRTGVLEHITHTPARLETGKQHNTGVYFTDIPRGVDGLATMDHKRAEQLGYFKLDML,0.0214
10,HMIDNKIIRSLRQKRNMTLEELAKKANISVSYLSEIELGKKQPSLETINKLSQALNISREGLI,-0.0581
11,HMIDPHGSLTLDLRPRDARVEIIDSNKTYKPGVRLPMGEYAIAVSRRGYISETKRINIEYGDNRERVAL,0.108
12,HMIDSDENERIKELIKALISETLKSRGVSPEVISDIKERVDRLHNEELPRFAAELKELISRN,-0.0979
13,HMIDSEEVMETIQDLGYSPVFDVKEKFYKIKEEQIGKITLEVHIILRYGMVDLVWIVRENGELLLG,-0.0952
14,HMIDTLEYIISEESKGLRADQAITMVNGEFSRSLIQKWIKKGSILVNGKKIKPRDILNLNDKVTINPEEN,-0.24
15,HMIEDMQQWIRQIREIVSNRLDLTRNISDDEIREVISDIVMEQSRQQYMSLNEKKTLMEGVFNSMR,-0.534
16,HMIEEIETQFLFDFGLIGHPNSAKIREKLSEALGIGYVNGKQLQKRLMMFGITKQQVVDVLTD,-4.78
17,HMIEMAGGYRKGDRVELHSLKGAAEHNGKQGTVVGPQGERVKVLLDDSDSKTLALKVTNLTKLESA,0.0656
18,HMIEMGNRIRTLRKRRVGSQSEFAEKLDVSVVTISRIENGMTKIDAELLIKMSEVLQVPVNIILGM,-3.29
19,HMIENPGQTFERIAGKITRTLRTGPLRIQQLDLLFSESGEQVMDVLRAMAENGEILIKDDTIQWNGHN,-0.246
20,HMIERKLRKKEHFIASVGEKVKIKNFATETYKGELISADNEKVVVETEFGKEEITYDNILAAATYFE,-0.808
21,HMIFNENLKSAREKKGLSQKEVAEAIGVAKSTYSLYESGNREPNVQTIKRIADVLNVSADVLLGL,-0.136
22,HMIGELVVEDLAAASEINVDTIRYYQRLGLLEPPRRRGRRAVYDHTHLERLAEIRRLAGAGFTLAQIGRLK,-3.19
23,HMIGILSDREAEILALLDEGLTNKAIGRRLNLAEPTVKFHLKNLYAKLGVGRRQLAVNVAKGSGLLNSD,-1.4
24,HMIGIRLKELVLKNQSAWVGLRVSELDISRKTMIVMIRRGDKMLIPNGSTILRSGDVLLLYTR,-0.682
25,HMIGITTANLNVRTGTDTNYTSIAILPKGTKVNILEENVKPGWYKIQFDEIYAFVSSKYIKIQS,-3.56
